Source: paper PMC6013234, “DENR–MCTS1 heterodimerization and tRNA recruitment are required for translation reinitiation” (PLoS Biology, 2018)

Target: T1, untagged full-length WT MCTS1 (human, UniProt Q9ULC4 1-181)
T1 construct: MCTS1, human, ORF in pETDuet under its own T7 promotor, untagged; also called MCT-1; source: E. coli BL21 (DE3), coexpressed with HIS-tagged DENR variants; in lysate for the pull-down, co-purified (NiNTA, SEC) for crystallization
T1 sequence (looked up): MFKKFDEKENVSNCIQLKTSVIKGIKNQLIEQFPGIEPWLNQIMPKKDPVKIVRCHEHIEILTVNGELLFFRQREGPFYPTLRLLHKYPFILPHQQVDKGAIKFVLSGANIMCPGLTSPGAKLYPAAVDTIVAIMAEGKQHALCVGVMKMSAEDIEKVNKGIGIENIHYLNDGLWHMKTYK
Assay: pull-down; N-terminally HIS-tagged DENR variants or fragments coexpressed with untagged MCTS1 in E. coli; DENR purified over a nickel column, copurifying MCTS1 detected in the eluate
Details: partners not purified

B1: NHis6-tagged DENR aas 24–51 (domain or fragment, human, UniProt O43583 24-51, looked up)
chain: DADYPLRVLYCGVCSLPTEYCEYMPDVA
notes: DENR, human, residues 24-51; also called DENR(aa24–51); DENR peptide; source: E. coli BL21 (DE3), coexpressed with untagged MCTS1; in lysate for the pull-down, purified (NiNTA, SEC) for crystallization; not shown: His6, N-terminal, kept
binding result: binds
